In the supplement of paper PMC9170038:

Tests used:
MS2 coat protein [1] = experiment: apparent KD of MS2 coat protein, switch ON state; designed switch direction (-1 OFF switch, 1 ON switch): -1; higher = weaker reporter binding; conditions: FMN input: 0 or 200 uM; Eterna round: R93 (includes R88 designs)
How it was run: (§1)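 Designed RNA switches were made by on-chip transcription from Illumina sequencing clusters and then titrated with SNAP-549-labelled MS2 coat protein. Twofold steps ran from 0.7 or 1.5 nM to 3 µM, each lasting 0.8–1.5 h early and 10–20 min late, in 100 mM Tris-HCl pH 7.5, 80 mM KCl, 4 mM MgCl2, without or with constant ligand. Apparent KD is the per-design median of normalised cluster binding-curve fits.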

MS2 coat protein [2] = experiment: apparent KD of MS2 coat protein, switch OFF state (with FMN for OFF switches, without FMN for ON switches); designed switch direction (-1 OFF switch, 1 ON switch): -1; higher = weaker reporter binding; conditions: FMN input: 0 or 200 uM; Eterna round: R93 (includes R88 designs)
How it was run: as §1

MS2 coat protein [3] = experiment: apparent KD of MS2 coat protein; designed switch direction (-1 OFF switch, 1 ON switch): 1; higher = weaker reporter binding
How it was run: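 Designed RNA switches with common flanks were transcribed on Illumina chips by stalled E. coli RNA polymerase and titrated with SNAP-549-labelled MS2 coat protein, from 0.7 or 1.5 nM doubling to 3 µM, in Tris-HCl pH 7.5 buffer with KCl, MgCl2, BSA, DTT, tRNA and Tween-20. Steps lasted 0.8–1.5 h (lowest) to 10–20 min (highest). Titrations ran without input, with 200 uM small-molecule ligand, or with an oligonucleotide input. Normalised cluster fluorescence was curve-fitted, and apparent KD is the per-design median over clusters.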

[4] = Eterna round: R95, input ligand: FMN 200 uM
[5] = Eterna round: R95, input ligand: microRNA oligo, concentration not stated
[6] = Eterna round: R95, input ligand: none
[7] = input ligand: microRNA oligo, concentration not stated

Sequence: AAAAAGUUAGGAUAUACAGAUAAAAAAACGAAAAAAAAUCUGUAGAAGGAACAUGAGGAUCACCCAUGUAAAAA [Ex 4 May 2]
- apparent KD of MS2 coat protein (MS2 coat protein [1]): 25.6 nM
- apparent KD of MS2 coat protein (MS2 coat protein [2]): 16.7 nM

Sequence: AACAUGUCAGGAUAUGCAACAGGAGACUGACACGCGAGUGAGCAGAAGGGACAUGAGGAUCACCCAUGUUCAAA [Meechl Ex4 3]
- apparent KD of MS2 coat protein (MS2 coat protein [1]): 21.1 nM
- apparent KD of MS2 coat protein (MS2 coat protein [2]): 17.1 nM

Sequence: AUAAAGUGAGGAUAUCGAAGACUGUCGAAAAGACAGUCGAACGAGAAGGCACAUGAGGAUCACCCAUGUGAGGG [Mat - Exaclusion 4 - Eli mod - D68]
- apparent KD of MS2 coat protein (MS2 coat protein [1]): 79.7 nM
- apparent KD of MS2 coat protein (MS2 coat protein [2]): 122 nM

Sequence: AAAAAGUCAGGAUAUUCGGAUAGGAAAACGAAAACCUAUCCGAAGAAGGGACAUGAGGAUCACCCAUGUGGAAA [67% Ecls-II - Late G segment 1]
- apparent KD of MS2 coat protein (MS2 coat protein [1]): 88.7 nM
- apparent KD of MS2 coat protein (MS2 coat protein [2]): 170 nM

Sequence: AAGAAGUGAGGAUAUACAAAAUAAAAGAAAAGAAAGAAAGAACAUGAGGAUCACCCAUGUAGAAGGUACAAGAA [Khakheperre Senusret II]
- apparent KD of MS2 coat protein (MS2 coat protein [1]): 29 nM
- apparent KD of MS2 coat protein (MS2 coat protein [2]): 22 nM

Sequence: AGGUGGUCAGGAUAUGCGUGAAGAAUAAAACAAAUAACAACGCAGAAGGGACAUGAGGAUCACCCAUGUCACCA [May 52]
- apparent KD of MS2 coat protein (MS2 coat protein [1]): 20.7 nM
- apparent KD of MS2 coat protein (MS2 coat protein [2]): 16.6 nM

Sequence: CGUCCGGCCUGUGCUGGCCGGUGGCGUGUACAUGAGGAUCACCCAUGUUCUUGUGCUGGCUGUUUGCUCGUCUUGUG [salish99_mir208a_r3_025] (puzzle: Sensor for hsa-mir-208a)
- apparent KD of MS2 coat protein (MS2 coat protein [3]; [4]): 44.8 nM
- apparent KD of MS2 coat protein (MS2 coat protein [3]; [5]): 23 nM
- apparent KD of MS2 coat protein (MS2 coat protein [3]; [6]): 58.2 nM

Sequence: AAAAGACAUGAGGAUCACCCAUGUAUGAAAAGUACAGGAUAUCACGAGCUAAGAAGCGAGUGAGAAGGGUGAAAAU [Sogedi] (puzzle: Same State 1)
- apparent KD of MS2 coat protein (MS2 coat protein [3]; [4]): 519 nM
- apparent KD of MS2 coat protein (MS2 coat protein [3]; [5]): 69.1 nM
- apparent KD of MS2 coat protein (MS2 coat protein [3]; [6]): 109 nM

Sequence: GGAAAGAGGUAAGGAUAUGCAUGGCUGGGACAUGAGGAUCACCCAUGUAAUAGAAGAAAUCUAGGGUAGAAGGUACAAGGAAGG [AK SSNG2-V2-9] (Eterna round: R96, puzzle: Same State NG 2)
- apparent KD of MS2 coat protein (MS2 coat protein [3]; input ligand: FMN 200 uM): 1110 nM
- apparent KD of MS2 coat protein (MS2 coat protein [3]; [7]): 367 nM
- apparent KD of MS2 coat protein (MS2 coat protein [3]; input ligand: none): 450 nM

Sequence: CAGUACAUUCAAGGAUAUUCUCCAUGGAAAGUAGAAGAAGGUGAAACAUGAGGAUCACCCAUGUAGAAAGGAACAUUCGUACUG [Eternabot solution 34] (Eterna round: R96, puzzle: Same State NG 1)
- apparent KD of MS2 coat protein (MS2 coat protein [3]; input ligand: FMN 200 uM): 181 nM
- apparent KD of MS2 coat protein (MS2 coat protein [3]; [7]): 147 nM
- apparent KD of MS2 coat protein (MS2 coat protein [3]; input ligand: none): 310 nM

Sequence: UGUUGUAUUACAGGAUAUCUAUUAGUUGUAUUUAGAGAAGGGUAUUCACAUGAGGAUCACCCAUGUAUAUACGAGGAAGUUGUG [JMF's solution 92] (Eterna round: R96, puzzle: Same State NG 1)
- apparent KD of MS2 coat protein (MS2 coat protein [3]; input ligand: FMN 200 uM): 79.8 nM
- apparent KD of MS2 coat protein (MS2 coat protein [3]; [7]): 44.1 nM
- apparent KD of MS2 coat protein (MS2 coat protein [3]; input ligand: none): 59.7 nM

Sequence: GUCAGGUAAGCUUUUUUCUCGUAGUGUAAACAUGAGGAUCACCCAUGUGCUCACCCUGGAUCUUUGGAUCGCAGAAA [Atormace] (puzzle: Sensor for hsa-mir-208a)
- apparent KD of MS2 coat protein (MS2 coat protein [3]; [4]): 16.5 nM
- apparent KD of MS2 coat protein (MS2 coat protein [3]; [5]): 14.3 nM
- apparent KD of MS2 coat protein (MS2 coat protein [3]; [6]): 17.1 nM

Sequence: GGAGUCGGCACUGAGGAUAUUCAUAUUUAAACAUGAGGAUCACCCAUGUAGGCCAGAAGGCCUUGGGAGAAGGCAGGUCGGCUCG [salish99_ss2_r3_084] (puzzle: Same State 2)
- apparent KD of MS2 coat protein (MS2 coat protein [3]; [4]): 22.5 nM
- apparent KD of MS2 coat protein (MS2 coat protein [3]; [5]): 154 nM
- apparent KD of MS2 coat protein (MS2 coat protein [3]; [6]): 241 nM

Sequence: GGAGACAGAGCAGGAUAUGCUCCGAGUAACGAAGCAGAAGGGUUCGUAAAUCGUCGACAUGAGGAUCACCCAUGUGACCUAGUA [Eternabot solution 18] (Eterna round: R96, puzzle: Same State NG 1)
- apparent KD of MS2 coat protein (MS2 coat protein [3]; input ligand: FMN 200 uM): 20.7 nM
- apparent KD of MS2 coat protein (MS2 coat protein [3]; [7]): 18.4 nM
- apparent KD of MS2 coat protein (MS2 coat protein [3]; input ligand: none): 24.7 nM

Sequence: UAUUUAAUCAUAGGAUAUAGUGUGAAAUUUGGACUAGAAGGAUGUAACAUGAGGAUCACCCAUGUGGUAAGUGGGACACAGUGA [JR_SSNG1_Sub096] (Eterna round: R96, puzzle: Same State NG 1)
- apparent KD of MS2 coat protein (MS2 coat protein [3]; [7]): 114 nM

Sequence: UUUAUAUUCAGAGGAUAUUAAUGUUGUAUAAUAUAAGAAGGCUGUUUGUUUUGUAAAGUUAUUAUACAUGAGGAUCACCCAUGU [JR_SSNG1_Sub082] (Eterna round: R96, puzzle: Same State NG 1)
- apparent KD of MS2 coat protein (MS2 coat protein [3]; [7]): 15.5 nM

Sequence: UCUUGGUUUUUGCUCGUUUUUUGUGUUGAACAUGAGGAUCACCCAUGUAUUGUACGGUCCGAUUUAGUAGUGGUCCG [JMF 18] (puzzle: Sensor for hsa-mir-208a)
- apparent KD of MS2 coat protein (MS2 coat protein [3]; [4]): 26 nM
- apparent KD of MS2 coat protein (MS2 coat protein [3]; [5]): 14.5 nM
- apparent KD of MS2 coat protein (MS2 coat protein [3]; [6]): 26.9 nM
